test: soluble on expression in E. coli; label from the status in PepcDB or PDB records

| Sequence | soluble on expression in E. coli |
| --- | --- |
| MEIRKKLVDPSKYCIKCPYTMNPEFITVHNTYNDATAENEVAYMIRNDNQVSFHIAVDDKEAVQGIPLERNAWHTGDGNGNGNRKSIGVEICYSLSGGDRYYKAEDNAAIVVAQLMKQYNIPIKKVRTHQSWSGKYCPHRMLAEGRWNNFIERVQNAYNGDGKVTPTLIPPSTNGTGIAYIEGNGINLRKGLGTGYGVIRQLGKGESYEVWGQSNGWLNLGGNQWIYNDSSYIRYTGESTPTSSQSVNNGVGIVTITADVLRVRKGPGTNYDIVKNVYQGEQYQSWGYRDGWYNVGGDQWVSGEYVKFED | not soluble |
| MIMTNINTACVKNNASYQLNNALPNKETISSNFCERLEQWGNKSVNNGEERAIAVERIKEAYNSNMASLDLSYLDLSELPPIPSTVNTLNLENNCLTCLDLADNASLVNINLSVNKINTITFPKEPKLENIYINHNNLESLDLKNQHSLVNLEAQNNSLKKLEHHHHHH | not soluble |
| MGHHHHHHSHMGNDKRSQIFTLSRYAGILRRCLKENAMSAQKPGLHPRNRHHSRYDLATLCQVNPELRQFLTLTPAGEQSVDFANPLAVKALNKALLAHFYAVANWDIPDGFLCPPVPGRADYIHHLADLLAEASGTIPANASILDIGVGANCIYPLIGVHEYGWRFTGSETSSQALSSAQAIISSNPGLNRAIRLRRQKESGAIFNGIIHKNEQYDATLCNPPFHDSAAAARAGSERKRRNLGLNKDDALNFGGQQQELWCEGGEVTFIKKMIEESKGFAKQVMWFTSLVSRGENLPPLYRALTDVGAVKVVKKEMAQGQKQSRFIAWTFMNDEQRRRFVNRQR | soluble |
| MAKYFGTDGIRGEVANSTITVEFTQKLGNAVGSLINQKNYPKFVIVGQDTRSSGGFLKFALVSGLNAAGIDVLDLGVVPTPVVAFMTVKHRAAAGFVITASHNKFTDNGIKLFSSNGFKLDDALEEEVEDMIDGDFIYQPQFKFGSYKILANAIDEYIESIYSRFAKFVNYKGKVVVDCAHGAASHNFEALLDKFGINYVSIASNPDGLNINVGCGATCVSNIKKAVKEQKADLGISLDGDADRIIIVDENGQEIDGDGILNILAQYSDICGGTNGIVGTQMTNMSYENHYRANKIPFIRSKVGDRYVLEDLVKYGYKIGGESSGHVINLNFGTTGDGLFTAIQLLAIFSQADKPVSEFKLQGELMQQTLINVPLTKKVAREDLQKVASDVNDVEKRLGNRGRVLLRPSGTEPVLRVMVEADDKSLATNEAEYLVEKVKQKLV | soluble |
| LPGRFQRSDVERVVTACSAALGLSSACLRALLVMVHATRPSDWRDEQRDAVCFMQQVQVAARLGVTPRALRYQEARLERLGLLRRNVAADGSRGRFGGGDLIQGISFAPLIEAFPSLLRIAEQLEAAERERQVLRRRVSAARRILSQTLTRLAALDKAVPGLTEVLASMPRRYDALDGSELGALLQRVDKAAREALRHLEVQQVSSGVPENSFRPHIQDTTQENPVCSGSSAIERTARKRADSIKPDAAPDGTASCYEKKHGLADRGFKPRYLDTFTPTQLYEAASPDMQMYLDAGRRSDSTLTAHDFIQAAIAILPALGVNASAWDEAADTMGDLPAALCVLVLDANRYRPVNPVWSPGGMLRAMTARARSGGLNLHGSLIALQRRAG | not soluble |
| MLKPEMIEKLNEQMNLELYSSLLYQQMSAWCSYHTFEGAAAFLRRHAQEEMTHMQRLFDYLTDTGNLPRINTVESPFAEYSSLDELFQETYKHEQLITQKINELAHAAMTNQDYPTFNFLQWYVSEQHEEEKLFKSIIDKLSLAGKSGEGLYFIDKELSTLDTQN | soluble |
| MNAGKKGVIYTCITGGYDELLNHTFISPEWDYVCFSDDMGINNEKNAQWEIRPLRFEKLDDVRNQRWHKLHPHLLFPESGLSLWVDGNVDILDGEIFHDIDRALNANLLIAPSLHPERNCIYDEFDACRQLGKDDPDVMGRQEYLIKKDGFPKAKGLFETNIIFRCHSHPMVITIMEEWWYWVEQYSRRDQLGFTYVLWKNNYTVEPLSPVSYRFSPGVRFRYGAFHITKEQLIKEKAALEIKVQRFEALICGRLVKVLYKIRKSTVKRWCRVKMQLLNSLCCRKLEHHHHHH | not soluble |
| MGSDKIHHHHHHVARLNAKQMEVFVAVMTHGSITAAGQRLNVSQPAVSRMIERFEQEAGFVAFERRRGKLVPTPEAEIFFAEVSQVYRGLDYLNEVAREIGTTRRGYLRVGVFPAFAEGWITERITRYVAGREELLTSLEPMSTDSVIEAVSRQTIDLGIALRASDREGLRSEEISSSEIVCILPKGHRLTGRPVLQPTDLSGEDFISMAAKVKARTSIDAVFDSSGVERRIRAETPWASTVCHMVAHGLGVGLVIRESAFEFAHLGYHIAAFKPRIDYRAYLITSTARPLSTAAKGFRDMLLLEFNQAKKAPRASKRWPT | not soluble |
| MRQHTRIANHNHYSWRIAVMTDTHSIAQPFEAEVSPANNRHVTVGYASRYPDYSRIPAITLKGQWLEAAGFATGTAVDVKVMEGCIVLTAQPPAAEESELMQSLRQVCKLSARKQKQVQAFIGVIAGKQKVA | not soluble |
| MEVRFKIYRYNPEVDKKPYYDEYTVEVENEGVKVLTALELIKEQDPTLALRRSCREGVCGSDGMNINGKNRLACITSVGELKQPIKVNPLPGLPVIRDLIVDMKQFYKNYEKVKPYLINDDEPPVKERLQSPEDRAKLDGLYECILCACCTTSCPSFWWNPDKFIGPSGLLQAYRFIADSRDTATEQRLEDLKDPFSLFRCRTIMNCVSVCPKGLNPTEAIGKIRSALLKKNV | not soluble |
| LYIRGLQPGTTDQDLVKLCQPYGKIVSTKAILDKTTNKCKGYGFVDFDSPSAAQKAVTALKASGVQAQMAKQ | soluble |
| MSLSNAEITHREGVKMLVVRPISMADYEALHTCAVESGHGFTSLPVDQELLTNRITHSEYSFSKPNVTMPGDEGYLMVGVDTETGQVAGTTGIEASIGWDVPFYSYHISTIVHSSPKLGVNNVVKLLTFGNNYTGCSEICTLFLRPQYRQGLNGRLMSKCRFLMMAEHSHRFSKTIFAEMRGVSDADGNSPFWKWLQEHFFSIDFTLADYLTGIGKKGFIADLMPKLPIYVNLLSKEAQAVIGQVHENTRPALVLLEKEGFTCRNYVDIFDAGPTVECELNNIESVRHSVRAIVEVAEHSSSQNFIMCNTSFENFRATAAKAAYSQEDNAVIISPKVAAALEVSTGDYLRILAQEGHHHHHH | soluble |
| MAHHHHHHMDTHALLALAQSAVDAGNVKAACEFYEVALAQSPNNDEVLEAYAEVMIHYAQDIPRAQQMLRHAIDINPNQGYVKYLNLAQLCEAEEALKCYEKAYEIASLMLHGCRKKKMKKTLQETMATMCCAVAELYLTDLCFAENAEQQCEQAVNRALELNSDLVEPHQLQASLRLSQCRPDEALQSLRRAVDATHRLGEEHQPTYESKIELGRLLMQVDPAEAFQFLLEVLQYGDNNPYVWFLLGESARMRRRYADAARLLRRARVMLVVSGGDATALSEVDAAINVLVQEMGGPEEAAQVKDLDHPYPLELLEAEDDEGAEEDGEDDLEEPEREPCDDEDDA | not soluble |
| MAHHHHHHMTMRRFGGALTRPLGGMRRVVVGPNGSVPEAGCVPTFETRRRKRLRLGGSLTGDWVASTESLSGSCVREEEARLLCFEKYGFVHKPLTMASWSDFLQELARFEFRWRLLPCVGGVTVLNIVERNCGDENVLCDLRTSCGSAPFAQFFECLGAFVQGTSEKRCIMFCDPNGLEQSLEIRAKRHLSPALGEGFEDEKPILPTLAQYDCRGTLVDLVLKDMKTDVLRPIISDISMQALNYAFLVSIPLFLRQADVGVRNTDLVSKEQMRHFRFAWCFLRRESMMTPVEIGELDTLLPP | not soluble |
| MSSSANSIKVVARFRPQNRVEIESGGQPIVTFQGPDTCTVDSKEAQGSFTFDRVFDMSCKQSDIFDFSIKPTVDDILNGYNGTVFAYGQTGAGKSYTMMGTSIDDPDGRGVIPRIVEQIFTSILSSAANIEYTVRVSYMEIYMERIRDLLAPQNDNLPVHEEKNRGVYVKGLLEIYVSSVQEVYEVMRRGGNARAVAATNMNQESSRSHSIFVITITQKNVETGSAKSGQLFLVDLAGSEKVGKTGASGQTLEEAKKINKSLSALGMVINALTDGKSSHVPYRDSKLTRILQESLGGNSRTTLIINCSPSSYNDAETLSTLRFGMRAKSIKNKAKVNAELSPAELKQMLAKAKTQ | soluble |
| MQTIKNSLGQSHDYIKMFVKEGDTVVDATCGNGNDTAFLASLVGENGRVFGFDIQDKAIANTTKKLTDLNLIDRVTLIKDGHQNMDKYIDCPVKAVMFNLGYLPSGDHSISTRPETTIQALSKAMELLVTGGIITVVIYYGGDTGFEEKEKVLEFLKGVDQKKFIVQRTDFINQANCPPILVCIEKISLEHHHHHH | not soluble |
